Data on 14 molecules can be found in patent publication US20070258982A1 (Pfizer, published 2007).

The labels stand for the following.
T1: human IL-22 (human, UniProt Q9GZX6 34-179)
T1 sequence: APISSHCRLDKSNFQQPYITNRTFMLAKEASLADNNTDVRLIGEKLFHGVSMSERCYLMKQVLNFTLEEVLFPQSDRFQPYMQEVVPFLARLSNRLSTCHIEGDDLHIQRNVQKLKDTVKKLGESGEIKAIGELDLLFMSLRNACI

T2: murine IL-22 (murine, UniProt Q9JJY9 34-179)
T2 sequence: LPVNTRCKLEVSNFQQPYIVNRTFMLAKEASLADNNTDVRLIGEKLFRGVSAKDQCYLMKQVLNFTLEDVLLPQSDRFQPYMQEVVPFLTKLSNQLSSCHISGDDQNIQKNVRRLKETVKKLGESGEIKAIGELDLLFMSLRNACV

T3: rat IL-22 (rat, UniProt G3V6X6 34-178)
T3 sequence: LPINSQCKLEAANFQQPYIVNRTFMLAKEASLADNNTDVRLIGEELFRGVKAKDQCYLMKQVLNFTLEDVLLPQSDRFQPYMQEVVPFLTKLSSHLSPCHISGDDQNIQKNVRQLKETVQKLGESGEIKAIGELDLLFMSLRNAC

T4: IL-26 (human, UniProt Q9NPH9)
T4 construct: also called human IL-26
T4 sequence (cytokine, looked up): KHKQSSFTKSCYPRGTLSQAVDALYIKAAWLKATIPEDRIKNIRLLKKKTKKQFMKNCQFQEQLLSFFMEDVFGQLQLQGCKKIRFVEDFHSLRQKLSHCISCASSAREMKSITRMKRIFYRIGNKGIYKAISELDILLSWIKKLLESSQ

B1: 367D04 IgG (non-germlined) (antibody, V domains shown)
VH: EVQLVESGGGVVRPGGSLRLSCAASGFTFDDYGMNWVRQAPGKGLEWVSGVNWNGGTRDYAASVKGRFTISRDNAKNSLYLQMNSLRAEDTALYYCARGWYSGSPWSLGHWGRGTLVTVSS
VL: QAVLTQPSSVSGSPGQSVTISCTGASGDVGAYNFVSWYQQHPGKTPKLIIYDVNKRPSGVSNRFSGSKSGNTASLTISRLQAEDESDYYCSSYTSRYTTEFGGGTKVTVLG
notes: IgG
B2: 368D04 IgG (non-germlined) (antibody, V domains shown)
VH: B1 VH with S104A, P105A, S107N, L108M, H110Y
VL: B1 VL with V18I, R79G, S91A, Y93L, T94V, R96D, Y97F, T98S, T99V, E100V
B3: 097D09 IgG (non-germlined) (antibody, V domains shown)
VH: EVQLVESGGGLVTPGGSLRLSCAASGFTFSDYYMSWVRQAPGRGLEWVSAISGSGGSTYYADSVKGRITISRDNAKNSLYLQMSSLRSEDTAVYYCARGLWVWDPLDYWGRGTLVTVSS
VL: DIQMTQSPSTLSASIGDRVTITCRASEGIYHWLAWYQQKPGKAPKLLIYKASSLASGAPSRFSGSGFGTDFTLTISSLQPDDFATYYCQQYSEFAWTFGGGTKLEIKR
notes: IgG
B4: 062G05 IgG (non-germlined) (antibody, V domains shown)
VH: QVQLVESGAEVKKPGASVKVSCKASGYTFTSYGISWVRQAPGQGLEWMGWISAYTGNTNYAQKFQGRVTMTTDTSTSTAYMELRSLRSDDTAVYYCARDRGYYDAFDIWGQGTLVTVSS
VL: B3 VL with Y91M, S92G, F94W, A95K, W96A, T97A
notes: IgG
B5: 375G06 IgG (non-germlined) (antibody, V domains shown)
VH: EVQLVQSGAEVKKPGASVKVSCQASGYTFSDYYIHWVRQTPGQGFEWMGWVNPDTGGTRYAQKFQGWVTMTRDMSNTTAYMELPRLRDDDTAVYYCARDLTGYDYYDRWGQGTLVTVSS
VL: QSVLTQPPSMSVAPGKTATITCGGNNFRNKRVHWYQQRPGQAPVLVIYYDSDRPSGIPERFSGSRSGNTATLTISRVEAGDEADFYCQVWDFLADEAMFGGGTKLTVL
notes: IgG
B6: 376B10 IgG (non-germlined) (antibody, V domains shown)
VH: B5 VH with R85G, Y105Q, D107T, R108A
VL: QSVLTQPPSVSVAPGKTATITCGGNNFRNKRVHWYQQRPGQAPVLVIYYDSDRPSGIPERFSGSRSGNTATLTISRVEAGDEADFYCSTFDPFTDRPLFGGGTKLTVLG
notes: IgG
B7: 355B06 IgG (germlined) (antibody, V domains shown)
VH: QVQLVQSGAEVKKPGASVKVSCKASGYTFTDYYMHWVRQAPGQGLEWVGWINPYTGSAFYAQKFRGRVTMTRDTSISTAYMELSRLRSDDTAVYYCAREPEKFGESSGQLWGRGTLVTVSS
VL: QAVLTQPPSVSGAPGQRVTISCTGSSSNIGAGYGVHWYQQLPGTAPKLLIYGDSNRPSGVPDRFSGSKSGTSASLAITGLQAEDEADYYCQSYDSGLSGYVFGGGTQLTVLG
B8: 356A11 IgG (germlined; Tables 6 and 9) (antibody, V domains shown)
VH: B7 VH with D31N, G104D, E105S, S106D, S107D, G108S, Q109D, L110V
VL: B7 VL with S95N, G96S
B9: 355E04 IgG (germlined) (antibody, V domains shown)
VH: B7 VH with D31H, S57G, R65Q, G104D, E105S, S106P, S107N, G108A, Q109E, L110I
VL: B7 VL with D53N, G96S
B10: 354A08 IgG (germlined) (antibody, V domains shown)
VH: B7 VH with S57G, K102R, E105D, S107T, L110V
VL: B7 VL with D53N, Q91Y, S92H, Y93W, S95K, G96E, L97Q
notes: isotype of this preparation not restated
B11: 356A11 human monoclonal anti-IL-22 antibody (Examples 10, 11, 14, 15) (antibody, V domains shown)
VH: B7 VH with D31N, G104D, E105S, S106D, S107D, G108S, Q109D, L110V
VL: B7 VL with S95N, G96S
B12: 087B03 IgG (germlined) (antibody, V domains shown)
VH: B1 VH with Y95H, S104A, P105A, S107N, L108M, H110Y
VL: QAALTQPASVSGSPGQSITISCTGASGDVGAYNFVSWYQQHPGKAPKLIIYDVNKRPSGVSNRFSGSKSGNTASLTISGLQAEDEADYYCSSYTSTFSVVFGGGTKLTVLG
B13: 166B06 IgG (germlined) (antibody, V domains shown)
VH: QVQLVQSGAEVKKPGASVKVSCKASGYTFSDYYIHWVRQAPGQGLEWMGWVNPDTGGTRYAQKFQGRVTMTRDMSISTAYMELSRLRSDDTAVYYCARDLTGFDPFDIWGQGTLVTVSS
VL: SSVLTQPPSVSVAPGKTARITCGGNNFRNKRVHWYQQKPGQAPVLVIYYDSDRPSGIPERFSGSRSGNTATLTISRVEAGDEADYYCQVWDLFNDNGVFGGGTKLTVLG
B14: 166G05 IgG (germlined) (antibody, V domains shown)
VH: B13 VH
VL: B13 VL with L92F, F93L, N94T, N96S, V98S

Numbering of substitutions follows the chain as printed.

T5 sequence (P02769 25-607 limits assumed): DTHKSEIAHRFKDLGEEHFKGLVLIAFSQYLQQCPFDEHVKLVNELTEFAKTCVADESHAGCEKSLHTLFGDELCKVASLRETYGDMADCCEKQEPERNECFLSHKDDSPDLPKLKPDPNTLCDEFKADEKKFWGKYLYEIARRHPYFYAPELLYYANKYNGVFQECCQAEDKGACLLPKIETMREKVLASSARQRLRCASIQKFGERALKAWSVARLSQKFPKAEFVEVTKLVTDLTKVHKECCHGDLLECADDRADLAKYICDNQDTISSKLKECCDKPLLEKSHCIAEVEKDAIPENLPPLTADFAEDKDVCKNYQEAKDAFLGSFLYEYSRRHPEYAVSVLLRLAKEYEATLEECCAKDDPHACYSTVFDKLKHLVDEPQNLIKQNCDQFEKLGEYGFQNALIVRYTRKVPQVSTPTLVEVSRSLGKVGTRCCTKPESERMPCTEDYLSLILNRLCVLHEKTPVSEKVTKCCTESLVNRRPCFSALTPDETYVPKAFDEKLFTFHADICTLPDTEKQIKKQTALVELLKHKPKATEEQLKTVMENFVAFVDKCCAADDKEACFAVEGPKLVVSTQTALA

The target of the first experiment is T1, human IL-22. The experiment can be described thus: cell-based or functional assay.
For the molecule B1, the “IC50 of IgG (pM) in BaF3-IL-22 proliferation assay” value (“IC50 of IgG (pM)” for short) was 126 pM.

Take B2: the “IC50 of IgG (pM)” value was 127 pM.

B3: the “IC50 of IgG (pM)” value was found to be 197 pM.

For B4, the “IC50 of IgG (pM)” value stood at 112 pM.

For B5, the “IC50 of IgG (pM)” value is 100 pM.

As to B6, the “IC50 of IgG (pM)” value is 119 pM.

For B7, the “IC50 of IgG (pM)” value was found to be 92 pM.

B8: the “IC50 of IgG (pM)” value came to 53 pM.

For the molecule B9, the “IC50 of IgG (pM)” value was determined as 100 pM.

Consider B10, for which the “IC50 of IgG (pM)” value stood at 79 pM.

The target in a further experiment is T1, human IL-22. Description: cell-based or functional assay. This is another data set of the same source.
As to B11, the “IC50 (pM) in GROa cell based assay (HT29 cells)” value (“IC50 (pM) … (HT29 cells)” below) amounted to 124 pM.

A further experiment concerns the target T2, murine IL-22. The experiment can be described thus: cell-based or functional assay.
For B11, the “IC50 (pM) … (HT29 cells)” value is 144 pM.

In another experiment the target is T3, rat IL-22. The experiment can be described thus: cell-based or functional assay.
In the case of B11, the “IC50 (pM) … (HT29 cells)” value was found to be 211 pM.

Another experiment deals with monkey IL-22 (monkey). Description: cell-based or functional assay.
As to B11, the “IC50 (pM) … (HT29 cells)” value came out at 89.6 pM.

Another experiment deals with T1, human IL-22. The experiment can be described thus: cell-based or functional assay. The source holds these as a separate data set.
On to B11, for which the “IC50 (pM) in BaF3 cell based assay” value was 3.57 pM.

Another experiment has as its target T2, murine IL-22. Description: cell-based or functional assay. This is another data set of the same source.
For the molecule B11, the “IC50 (pM) in BaF3 cell based assay” value came to 2.53 pM.

The target in a further experiment is T3, rat IL-22. The experiment can be described thus: cell-based or functional assay. This is another data set of the same source.
For the molecule B11, the “IC50 (pM) in BaF3 cell based assay” value amounted to 10.7 pM.

For another experiment, the target named is monkey IL-22 (monkey). The experiment can be described thus: cell-based or functional assay. This is another data set of the same source.
Regarding B11, the “IC50 (pM) in BaF3 cell based assay” value stood at 2.58 pM.

The next experiment concerns the target T5, BSA (bovine, UniProt P02769).
T5 construct: also called bovine serum albumin
Description: ELISA: plate coated with antigen, IgG added at 1 µg/ml, HRP goat anti-human IgG, A450.
As to B12, the binding result is “no binding (tested: 1 µg/ml)”.

In the case of B13, the binding result was “no binding (tested: 1 µg/ml)”.

For B14, the binding result is recorded as “no binding (tested: 1 µg/ml)”.

On to B7, for which the binding result is recorded as “no binding (tested: 1 µg/ml)”.

With B8, the binding result is reported as “no binding (tested: 1 µg/ml)”.

Consider B9, for which the binding result is recorded as “no binding (tested: 1 µg/ml)”.

Regarding B10, the binding result is “no binding (tested: 1 µg/ml)”.

Another experiment concerns the target T5, BSA. The experiment is described as above. The source holds these as a separate data set.
Consider B1, for which the binding result is “no binding (tested: 1 µg/ml)”.

Consider B2, for which the binding result is reported as “no binding (tested: 1 µg/ml)”.

On to B3, for which the binding result is “no binding (tested: 1 µg/ml)”.

For the molecule B4, the binding result is “no binding (tested: 1 µg/ml)”.

As to B5, the binding result is on record as “no binding (tested: 1 µg/ml)”.

In the case of B6, the binding result is listed as “no binding (tested: 1 µg/ml)”.

For another experiment, the target named is T4, IL-26. The experiment can be described thus: ELISA: plate coated with 1 µg/ml antigen, IgG added at 1 µg/ml, HRP goat anti-human IgG, A450. As to the method:
(§1) Cross species reactivity of germlined and non-germlined optimized antibodies were determined as follows: ELISA plates (Costar, Cat. #3590) were coated overnight with 1 μg/ml of rat, mouse, or human IL-22 or human IL-26 in PBS buffer. Plates were washed with PBST buffer (0.05% Tween20 in PBS) 3 times, then blocked with 1% BSA (Sigma A8918)/PBST for 1 hr at RT. Antibodies were added at 1 μg/ml, incubated 1 hr at 25° C. […] The plates were incubated for 1 hour at 25° C., then washed with PBST, and developed with TMB (KPL, Cat. #50-76-04). Reaction was stopped with 0.18 M H₂SO₄ Plates were read at OD 450 nm.
Consider B1, for which the binding result is reported as “no binding (tested: 1 µg/ml)”.

As for B12, the binding result is “no binding (tested: 1 µg/ml)”.

With B2, the binding result was “no binding (tested: 1 µg/ml)”.

In the case of B3, the binding result is “no binding (tested: 1 µg/ml)”.

For B13, the binding result is “no binding (tested: 1 µg/ml)”.

With B14, the binding result is reported as “no binding (tested: 1 µg/ml)”.

On to B5, for which the binding result is “no binding (tested: 1 µg/ml)”.

With B6, the binding result is given as “no binding (tested: 1 µg/ml)”.

With B7, the binding result is on record as “no binding (tested: 1 µg/ml)”.

Regarding B8, the binding result is recorded as “no binding (tested: 1 µg/ml)”.

For the molecule B9, the binding result is reported as “no binding (tested: 1 µg/ml)”.

Regarding B10, the binding result is recorded as “no binding (tested: 1 µg/ml)”.

The next experiment has as its target T2, murine IL-22. Described as above. The procedure:
as §1
Take B3: the binding result is “no binding (tested: 1 µg/ml)”.
